Measurements published in paper PMC3317930, “A Human PrM Antibody That Recognizes a Novel Cryptic Epitope on Dengue E Glycoprotein” (PLoS ONE, 2012).

Experiments:
[1] = molecular target: prM protein of DENV3 (Dengue virus 3, strain H87, UniProt P27915); experiment: Western blot; conditions: one partner purified
[2] = molecular target: T1, envelope (E) protein of DENV3 (Dengue virus 3, strain H87, UniProt P27915); experiment: Western blot; conditions: one partner purified
T1 construct: also called E glycoprotein; source: DENV3-infected Vero cells, in lysate

[3] = molecular target: T2, prM protein of the non-mutated prM-E construct (pCMV-prM-E) (Dengue virus 2 strain New Guinea C, UniProt P14340); experiment: Western blot; conditions: one partner purified
T2 construct: also called prM of pCMV-prM-E; source: HEK293-T cells, transfected, in lysate

[4] = molecular target: T3, envelope (E) protein of DENV4 (Dengue virus 4, strain H241, UniProt Q58HT7); experiment: Western blot; conditions: one partner purified
T3 construct: also called E glycoprotein; source: DENV4-infected Vero cells, in lysate

[5] = molecular target: Dengue 3 (DENV3) strain H87, whole virus (Dengue virus 3, strain H87, UniProt P27915, strain); experiment: ELISA; conditions: both partners purified
[6] = molecular target: Dengue 2 (DENV2), whole virus (Dengue virus 2, strain New Guinea C (or …, UniProt P14340, strain)); experiment: ELISA; conditions: both partners purified
[7] = molecular target: Dengue 1 (DENV1) strain Hawaii, whole virus (Dengue virus 1, strain Hawaii, UniProt B5AGU1, strain); experiment: ELISA; conditions: both partners purified
[8] = molecular target: Dengue 4 (DENV4) strain H241, whole virus (Dengue virus 4, strain H241, UniProt Q58HT7, strain); experiment: ELISA; conditions: both partners purified

B1: D29 Fab-IgG (antibody, V domains shown)
VH: QMQLVQSGGGVVQPGRSLRLSCAASGFTFSSYAMHWVRQAPGKGLEWVAGTSYDGSNKYYADSVKGRFTISGDNSKNTVYLQMNSLRAEDTAVYYCARAHSSGWYDAFDIWGQGTTVTVSS
VL: SYVLTQPPSVSVSPGQAASITCSGDKLGDKYAWWYQQKPGQSPVMVIHQDDKRPSGIPERFSGSNSGNTATLTITGTQAMDEADYYCQAWDRTTVVFGGGTKLTVL
notes: source: HEK 293 T cells (Fab from a non-immunized human Fab phage library, converted into human IgG format)
binding result [1]: binds | binding result [2]: binds | binding result [3]: binds | binding result [4]: binds | Kd [5]: 0.114 nM | Kd [6]: 0.0869 nM | Kd [7]: 0.0905 nM | Kd [8]: 0.108 nM
